Measured values as given in patent US20250092134A1.
Positions count from the first letter of the chain named.

B1: 23A9B10 (antibody, V domains shown)
VH: EVQLQESGPGLVKPSQSLSLTCSVTGYSITSGYYWNWIRQFLGNKLEWMGYITYDGSNNYNPSLKDRISITRDTSKNQFFLNLNSVTTDDTATYYCARGGGYVPVWGTGTTVTVSS
VL: IQMTQSPAFLSVSPGERVSFSCRASQNIGTSIHWYQQRTNGSPRLLIKYASESISGIPSRFSGSGSGTDFTLSINSVESEDFADYYCHQSHNWPTTFGAGTKLELK
B2: 23A9C10 (antibody, V domains shown)
VH: B1 VH
VL: DIQMTQSPAFLSVSPGERVSFSCRASQNIGTSIHWYQQRTNGSPRLLIKYASESISGIPSRFSGSGSGTDFTLSINSVESEDFADYYCHQSHNWPTTFGAGTKLELK
B3: 23A9F7 (antibody, V domains shown)
VH: B1 VH
VL: B2 VL with I2V
B4: 28B2A2 (antibody, IgG2a, V domains shown)
VH: EVQLQESGPELVKPGASVKMSCKASGYTFTDDNMHWVKQSHGKSLEWIGYINPNNNHTNYNQKFKGKATLTVNKSSSTAYMELRSLTSEDSAVYFCARSTVVPFYAMDYWGQGTSVTVSS
VL: DIVMTQSPASLSMAIGEKVTIRCITITDIDDDMNWYQQKPGEPPKLLFSEGNTLRPGVPSRFSSSGYGSDFAFTIENMLSEDVADYYCLQSDNLPLTFGAGTKLELK
B5: 28B2A4 (antibody, IgG2a, V domains shown)
VH: B4 VH
VL: B4 VL with V3Q, A100G, L106I
B6: 28B2F5 (antibody, IgG2a, V domains shown)
VH: B4 VH
VL: B4 VL with V3K
B7: 21G11A8 (antibody, V domains shown)
VH: EVQLQESGPDLKKPGETVKISCKASGYTFTTYGMNWVKQAPGKGLKWMGYLNTYSGVSTYADDFKGRFAFSLETSANTAYLQINNLRNDDTATYFCARWGNYGAMDYWGQGTSVTVSS
VL: DIKMTQSPLSLPVSLGDQASISCRSSQSIVRSNGFTYLEWYLQKPGQSPELLIYKVSNRFSGVPDRFSGSGSGTDFTLKISRVEAEDLGVYYCFQSSHVPRTFGGGTKLEIK
B8: 28D2E6 (antibody, IgG1, V domains shown)
VH: B1 VH with S28F, T30S, N36K, L42P, T53S, D66N, N82K, T88A, D89E
VL: B7 VL with K3Q, F35N, E50K
B9: 21G11D5 (antibody, V domains shown)
VH: B7 VH
VL: B7 VL with K3V
B10: 28D2E8 (antibody, IgG1, V domains shown)
VH: B1 VH with S28F, T30S, N36K, L42P, T53S, D66N, N82K, T88A, D89E
VL: B7 VL with F35N, E50K
B11: 28C9A5 (antibody, IgG2b, V domains shown)
VH: EVQLQESGAELVRPGTSVKMSCKASGYTFTHYWIDWTKQRPGHGLEWIGNIYPGGGYTNYNENFKGKATLTADKSSSTVFMQFSSLTSDDSAIYYCTRKGYYYGSDWYFDVWGTGTTVTVSS
VL: QIVLSQSPAIMSASPGEKVTMTCSASSSVSYMHWYQQKSGTSPKRWIYDTSKLASGVPARFSGSGSGTSYSLTISSMEAEDAATYYCQQWSSNPYTFGGGTKLEIK
B12: 20A9A9 (antibody, V domains shown)
VH: EVQLQESGPGLVQPSQSLSITCTVSGFSLTSYGVHWVRQSPGKGLEWLGIIWSAGGTDYNAAFISRLSISKDNSKSQIFFKLNSLHADDTAIYFCARGSFYDYGRLDYWGQGTTLTVSS
VL: DIVMTQSHRFMSTSVGDRVSITCKASQDVSTAVAWYQQKPGQSPKLLIYSSSYRYTGVPDRFTGSGSGTDFTFTISSVQAEDLAVYYCQQHYGTPYTFGGGTKLEIQ

target: TCR Vβ17 on T cells of PBMCs; assay: flow cytometry on PBMCs, percent of cells stained
Sequence (A0A075B6N1 22-114): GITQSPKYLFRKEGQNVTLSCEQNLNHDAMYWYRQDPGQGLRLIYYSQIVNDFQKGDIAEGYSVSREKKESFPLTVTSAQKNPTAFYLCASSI

Row | Binder | PBMC binding (%)
1 | B1 | 2.74
2 | B2 | 3.2
3 | B3 | 2.32
4 | B4 | 3.13
5 | B5 | 2.97
6 | B6 | 3.2
7 | B7 | 2.96
8 | B8 | 3.27
9 | B9 | 3.06
10 | B10 | 3.3
11 | B11 | 3.27
12 | B12 | 2.7

target: HuTCR Vb17 × Va12 (SKW3-2) (human); assay: flow cytometry on SKW3-2 cells
Sequence (A0A075B6N1 22-114): as above

Row | Binder | MFI [MFI]
13 | B1 | 6600
14 | B2 | 3210
15 | B3 | 3400
16 | B4 | 36500
17 | B5 | 53800
18 | B6 | 36600
19 | B7 | 38900
20 | B8 | 53800
21 | B9 | 56300
22 | B10 | 50000
23 | B11 | 56900
24 | B12 | 43100

target: HuTCR Vb7/9 × Va10.2 (SKW3-3) (human); assay: flow cytometry on SKW3-3 cells (no Vβ17)

Row | Binder | MFI [MFI]
25 | B1 | 507
26 | B2 | 458
27 | B3 | 466
28 | B4 | 434
29 | B5 | 472
30 | B6 | 438
31 | B7 | 532
32 | B8 | 441
33 | B9 | 427
34 | B10 | 452
35 | B11 | 438
36 | B12 | 448

target: HuTCR Vb17 × Va10.2 (SKW3_1) (human); assay: flow cytometry on SKW3-1 cells
Sequence (A0A075B6N1 22-114, chain 1 of 2): as the sequence (A0A075B6N1 22-114) above
Sequence (A0A087WT01 20-109, chain 2 of 2, further chain): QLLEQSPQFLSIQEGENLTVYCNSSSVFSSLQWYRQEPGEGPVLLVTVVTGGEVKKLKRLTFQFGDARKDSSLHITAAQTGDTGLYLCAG

Row | Binder | MFI [MFI]
37 | B1 | 10100
38 | B2 | 7660
39 | B3 | 8600
40 | B4 | 77400
41 | B5 | 45700
42 | B6 | 81800
43 | B7 | 48700
44 | B8 | 38000
45 | B9 | 47500
46 | B10 | 43600
47 | B11 | 55200
48 | B12 | 39500

target: Vβ17 (on cells expressing Vβ17); assay: cell-based or functional assay
Sequence (A0A075B6N1 22-114): as the sequence (A0A075B6N1 22-114) above

Row | Binder | Cell Internalization (EC50) [nM]
49 | B4 | < 0.07
50 | B5 | < 0.07
51 | B6 | < 0.07

target: TCR Vβ17 on T cells of PBMCs; assay: cell-based or functional assay

Row | Binder | Proliferation (EC50, ug/ml) [µg/mL]
52 | B5 | > 5
53 | B6 | 0.7
54 | B7 | > 5
55 | B8 | 0.3
56 | B9 | 2
57 | B11 | 0.9
58 | B12 | > 5
